Patent publication US20210346432A1 (Memorial Sloan Kettering, published 2021)
No end group written: not given here. *: point of attachment. Biotin = O=C1N[C@H]2[C@H](CS[C@H]2CCCCC(=O)*)N1

What was measured:
Experiment in all cases: peptide ELISA on streptavidin plate
[1] = biological target: T1, ET140-p22 (human, cysteine pairing not given here)
T1 construct: also called peptide 22
T1 peptide: Biotin-SGSGPCQLRCSSNTPPLTC
Experimental: (§1) The peptides were coated onto Streptavidin plates at 2 ug/mL in PBST (PBS+0.05% Tween-20). After washing and blocking with 3% BSA. […] “mIgG1” used in all Examples represents that the variable region is fully human and the Fc part is mouse IgG1. Then HRP anti-mouse IgG detection antibody was added to each well. Finally, the color was developed using TMB substrate. A450 was recorded for data analysis.

[2] = biological target: T2, ET140-p4 (human)
T2 construct: also called peptide 4
T2 peptide: Biotin-SGSGAGQCSQNEYFDSLLH
Experimental: as §1

[3] = biological target: T3, ET140-p28 (human, cysteine pairing not given here)
T3 construct: also called peptide 28
T3 peptide: Biotin-SGSGSSNTPPLTCQRYCNA
Experimental: as §1

[4] = biological target: T4, ET140-p35 (human, cysteine pairing not given here)
T4 construct: also called peptide 35
T4 peptide: Biotin-SGSGTCQRYCNASVTNSVK
Experimental: as §1

[5] = biological target: T5, ET140-p20 (human, cysteine pairing not given here)
T5 construct: also called peptide 20
T5 peptide: Biotin-SGSGCIPCQLRCSSNTPPL
Experimental: as §1

[6] = biological target: T6, ET140-p34 (human, cysteine pairing not given here)
T6 construct: also called peptide 34
T6 peptide: Biotin-SGSGLTCQRYCNASVTNSV
Experimental: as §1

[7] = biological target: T7, ET140-p27 (human, cysteine pairing not given here)
T7 construct: also called peptide 27
T7 peptide: Biotin-SGSGCSSNTPPLTCQRYCN
Experimental: as §1

[8] = biological target: T8, ET140-p32 (human, cysteine pairing not given here)
T8 construct: also called peptide 32
T8 peptide: Biotin-SGSGPPLTCQRYCNASVTN
Experimental: as §1

[9] = biological target: T9, ET140-p5 (human)
T9 construct: also called peptide 5
T9 peptide: Biotin-SGSGGQCSQNEYFDSLLHA
Experimental: as §1

[10] = biological target: T10, ET140-p1 (human)
T10 construct: also called peptide 1; ET140-pl
T10 peptide: Biotin-SGSGLQMAGQCSQNEYFDS
Experimental: as §1

[11] = biological target: T11, ET140-p37 (human)
T11 construct: also called peptide 37
T11 peptide: Biotin-SGSGQRYCNASVTNSVKGT
Experimental: as §1

[12] = biological target: T12, ET140-p38 (human)
T12 construct: also called peptide 38
T12 peptide: Biotin-SGSGRYCNASVTNSVKGTN
Experimental: as §1

[13] = biological target: T13, ET140-p6 (human, cysteine pairing not given here)
T13 construct: also called peptide 6
T13 peptide: Biotin-SGSGQCSQNEYFDSLLHAC
Experimental: as §1

[14] = biological target: T14, ET140-p29 (human, cysteine pairing not given here)
T14 construct: also called peptide 29
T14 peptide: Biotin-SGSGSNTPPLTCQRYCNAS
Experimental: as §1

[15] = biological target: T15, ET140-p16 (human, cysteine pairing not given here)
T15 construct: also called peptide 16
T15 peptide: Biotin-SGSGLLHACIPCQLRCSSN
Experimental: as §1

[16] = biological target: T16, ET140-p31 (human, cysteine pairing not given here)
T16 construct: also called peptide 31
T16 peptide: Biotin-SGSGTPPLTCQRYCNASVT
Experimental: as §1

[17] = biological target: T17, ET140-p14 (human, cysteine pairing not given here)
T17 construct: also called peptide 14
T17 peptide: Biotin-SGSGDSLLHACIPCQLRCS
Experimental: as §1

[18] = biological target: T18, ET140-p21 (human, cysteine pairing not given here)
T18 construct: also called peptide 21
T18 peptide: Biotin-SGSGIPCQLRCSSNTPPLT
Experimental: as §1

[19] = biological target: T19, ET140-p3 (human)
T19 construct: also called peptide 3
T19 peptide: Biotin-SGSGMAGQCSQNEYFDSLL
Experimental: as §1

[20] = biological target: T20, ET140-p24 (human, cysteine pairing not given here)
T20 construct: also called peptide 24
T20 peptide: Biotin-SGSGQLRCSSNTPPLTCQR
Experimental: as §1

[21] = biological target: T21, ET140-p30 (human, cysteine pairing not given here)
T21 construct: also called peptide 30
T21 peptide: Biotin-SGSGNTPPLTCQRYCNASV
Experimental: as §1

[22] = biological target: T22, ET140-p18 (human, cysteine pairing not given here)
T22 construct: also called peptide 18
T22 peptide: Biotin-SGSGHACIPCQLRCSSNTP
Experimental: as §1

[23] = biological target: T23, ET140-p39 (human)
T23 construct: also called peptide 39
T23 peptide: Biotin-SGSGYCNASVTNSVKGTNA
Experimental: as §1

binding result [1]: no binding (tested: 1 ug/mL)
binding result [2]: no binding (tested: 1 ug/mL)
binding result [3]: no binding (tested: 1 ug/mL)
binding result [4]: no binding (tested: 1 ug/mL)
binding result [5]: no binding (tested: 1 ug/mL)
binding result [6]: no binding (tested: 1 ug/mL)
binding result [7]: no binding (tested: 1 ug/mL)
binding result [8]: no binding (tested: 1 ug/mL)
binding result [9]: no binding (tested: 1 ug/mL)
binding result [10]: no binding (tested: 1 ug/mL)
binding result [11]: no binding (tested: 1 ug/mL)
binding result [12]: no binding (tested: 1 ug/mL)
binding result [13]: no binding (tested: 1 ug/mL)
binding result [14]: no binding (tested: 1 ug/mL)
binding result [15]: no binding (tested: 1 ug/mL)
binding result [16]: no binding (tested: 1 ug/mL)
binding result [17]: no binding (tested: 1 ug/mL)
binding result [18]: no binding (tested: 1 ug/mL)
binding result [19]: no binding (tested: 1 ug/mL)
binding result [20]: no binding (tested: 1 ug/mL)
binding result [21]: no binding (tested: 1 ug/mL)
binding result [22]: no binding (tested: 1 ug/mL)
binding result [23]: no binding (tested: 1 ug/mL)
B1: ET140-153 mIgG1 (antibody, V domains shown)
VH: QVQLVQSGAEVKKPGSSVKVSCKASGGTFSSYAISWVRQAPGQGLEWMGRIIPILGIANYAQKFQGRVTITADKSTSTAYMELSSLRSEDTAVYYCARGGYYSHDMWSEDWGQGTLVTVSS
VL: LPVLTQPPSASGTPGQRVTISCSGRSSNIGSNSVNWYRQLPGAAPKLLIYSNNQRPPGVPVRFSGSKSGTSASLAISGLQSEDEATYYCATWDDNLNVHYVFGTGTKVTVLG
notes: also called ET140-3 mIgG1; ET140-3
